The text below walks through data of patent US20170015749A1 (NATIONAL RESEARCH COUNCIL OF CANADA, published 2017).

Numbering of substitutions follows the chain as printed.

Assay [1] deals with T1, recombinant extracellular portion of human IGF1R (IGF1R^933-His) (human, UniProt P08069 31-933).
T1 construct: It contains a furin cleavage site (RKRR) between the alpha and beta subunits, so the secreted protein may be two disulphide-linked chains; Immobilized by amine coupling on a CM5 chip; also called recombinant human IGF1R; human IGF1R fragment; not shown: His tag from vector pCDN4/myc-His
Nature of the assay: SPR, Biacore 3000, human IGF1R immobilized on CM5, VHH as analyte, 1:1 model. Here is the method:
(§1) Approximately 3000 Resonance Units (RU) of recombinant human IGF1R were immobilized on a Sensor chip CM5. Immobilization was carried out at a concentration of 10 μg/ml in 10 mM acetate at pH4.0 using the amine coupling kit supplied by the manufacturer. The remaining binding sites were blocked with 1 M ethanolamine pH 8.5. An ethanolamine blocked surface was used as a reference surface. For the binding studies, analyses were carried out at 25° C. in 10 mM HEPES, pH7.4 containing 150 mM NaCl, 3 mM EDTA and 0.005% surfactant P20 (Polyoxyethylenesorbitan; GE Healthcare). […] Surfaces were regenerated with 10 mM glycine pH 2.0 with a contact time of 24 seconds. Data were analyzed with BIAevaluation 4.1 software (GE Healthcare).
For orientation: Surface plasmon resonance follows binding to a sensor surface in real time, without labels.

Assay [2] has as its target T2, recombinant human Insulin Receptor (R&D systems) (human, UniProt P06213-2 28-944, limits assumed).
T2 construct: extracellular domain; Immobilized on a CM5 chip at about 4000 RU; also called IR; recombinant extracellular portion of the human Insulin Receptor
Nature of the assay: SPR, IGF1R-3 VHH (1 nM per text) injected over immobilised human Insulin Receptor surface (curve without asterisk). Here is the method: as §1

One may read the Kd as the concentration at which binding is half-saturated. The term koff denotes the rate constant with which the complex falls apart.

T2 sequence (P06213 other isoform, or with tags, fused parts or gaps limits assumed): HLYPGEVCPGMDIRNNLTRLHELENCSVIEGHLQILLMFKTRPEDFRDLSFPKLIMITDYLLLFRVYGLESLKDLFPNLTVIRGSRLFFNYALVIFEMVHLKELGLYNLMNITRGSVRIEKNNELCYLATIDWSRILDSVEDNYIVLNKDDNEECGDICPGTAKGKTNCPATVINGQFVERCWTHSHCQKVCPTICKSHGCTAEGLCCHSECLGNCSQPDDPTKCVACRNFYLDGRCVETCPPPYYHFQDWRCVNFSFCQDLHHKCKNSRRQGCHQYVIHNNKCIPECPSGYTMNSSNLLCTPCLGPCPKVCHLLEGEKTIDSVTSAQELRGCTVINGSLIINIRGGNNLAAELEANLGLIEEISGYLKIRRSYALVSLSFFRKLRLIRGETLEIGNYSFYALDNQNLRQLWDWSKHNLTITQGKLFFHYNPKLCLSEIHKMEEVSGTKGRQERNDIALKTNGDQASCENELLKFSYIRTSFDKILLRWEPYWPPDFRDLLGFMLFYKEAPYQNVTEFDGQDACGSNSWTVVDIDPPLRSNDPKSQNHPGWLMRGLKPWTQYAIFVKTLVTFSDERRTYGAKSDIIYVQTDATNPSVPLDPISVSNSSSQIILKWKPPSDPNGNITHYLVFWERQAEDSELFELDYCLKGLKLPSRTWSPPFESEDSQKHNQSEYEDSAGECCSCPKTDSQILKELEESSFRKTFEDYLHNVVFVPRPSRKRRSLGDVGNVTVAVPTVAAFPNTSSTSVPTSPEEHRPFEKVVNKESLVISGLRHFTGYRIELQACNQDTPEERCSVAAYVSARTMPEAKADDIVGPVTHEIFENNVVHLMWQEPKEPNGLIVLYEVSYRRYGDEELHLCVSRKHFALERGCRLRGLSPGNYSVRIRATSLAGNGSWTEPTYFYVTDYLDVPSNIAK

B1: IGF1R-3_H4 (VHH)
VHH: QVQLVESGGGLVQPGGSLRLSCAASEYPSNFYAMSWFRQAPGKEREFVAGVSRDGLTTLYADSVKGRFTMSRDNSKNTVYLQMNSLRAEDTAVYYCAIVITGVWNKVDVNSRSYHYWGQGTLVTVSS
notes: Humanized variant of IGF1R-3, monomeric VHH; not shown: C-terminal tag from expression vector pSJF2H (protein purified by IMAC)
Regarding B1, in assay [1], the dissociation constant Kd is 1.4 nM and the dissociation rate constant (koff) is 0.00055 s⁻¹.

B2: IGF1R-3_H5 (VHH)
VHH: B1 VHH with Q1E, A49S, M70I, V79L
notes: as for B1
For B2, in assay [1], the Kd was 7.5 nM and the koff was found to be 0.0025 s⁻¹.

B3: IGF1R-3_H2 (VHH)
VHH: B1 VHH with F37V, E44G, R45L, F47W
notes: as for B1
On to B3, for which, in assay [1], the Kd was found to be 6.6 nM and the koff amounted to 0.00072 s⁻¹.

B4: IGF1R-3 VHH (VHH)
VHH: B1 VHH with Q3K, V5E, P14A, A23V, S75A, Y80D, L86V, R87K, L122Q
notes: Llama VHH expressed in E. coli TG1 from pSJF2H and tested as monomer; also called anti-IGF1R VHH IGF1R-3; IGF1R VHH; not shown: C-terminal tag from expression vector pSJF2H (protein purified by IMAC)
Take B4: the binding result in assay [2] is on record as “no binding (tested: 1 nM)”. In assay [1], the Kd was found to be 1.3 nM and the off-rate (koff) was determined as 0.00013 s⁻¹.

B5: IGF1R-3_H1 (VHH)
VHH: B1 VHH with Q1E, F37V, E44G, R45L, F47W, A49S, M70I, V79L
notes: as for B1
As to B5, in assay [1], the dissociation constant Kd turned out to be 47 nM and the off-rate (koff) came to 0.0023 s⁻¹.
